Experimental data published in patent publication US20250313644A1.
Read-outs that look alike come from different tables or passages of the source.

Columns and labels:
TNFα [1] = molecular target: TNFα (UniProt P01375); assay: ELISA, coated TNF-α, Ab 6.25 nM
LT-α [2] = molecular target: T1, LT-α (UniProt P01374); assay: ELISA, coated LT-α, Ab 1.563 nM
T1 sequence (looked up): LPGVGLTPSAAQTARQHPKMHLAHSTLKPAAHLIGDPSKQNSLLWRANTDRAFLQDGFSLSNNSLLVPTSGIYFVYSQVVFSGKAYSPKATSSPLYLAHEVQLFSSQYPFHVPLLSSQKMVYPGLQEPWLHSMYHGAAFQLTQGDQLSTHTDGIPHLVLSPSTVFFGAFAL

FASL [3] = molecular target: FASL (UniProt P48023); assay: ELISA, coated FASL, Ab 0.391 nM
LT-α [4] = molecular target: T1, LT-α; assay: ELISA, coated LT-α, Ab 0.391 nM
TNFα [5] = molecular target: TNFα (UniProt P01375); assay: ELISA, coated TNF-α, Ab 0.391 nM
LT-α [6] = molecular target: T1, LT-α; assay: ELISA, coated LT-α, Ab 100 nM
TNFα [7] = molecular target: TNFα (UniProt P01375); assay: ELISA, coated TNF-α, Ab 100 nM
FASL [8] = molecular target: FASL (UniProt P48023); assay: ELISA, coated FASL, Ab 25 nM
LIGHT [9] = molecular target: LIGHT (UniProt O43557); assay: ELISA, coated LIGHT, Ab 25 nM
FASL [10] = molecular target: FASL (UniProt P48023); assay: ELISA, coated FASL, Ab 0.000 nM (blank)
[11] = molecular target: human TL1A (HuTL1A) (human) (UniProt O95150); assay: ELISA: biotin-HuTL1A on streptavidin plate, antibody diluted at pH 7.4, HRP-anti-human Fc, OD450
[12] = molecular target: human TL1A (HuTL1A) (human) (UniProt O95150); assay: competition ELISA: antibody dilution mixed 1:1 with Biotin-TL1A, added to coated DcR3 (1 µg/mL), Streptavidin-HRP, OD450; blocked partner of TL1A: DcR3
TNFα [13] = molecular target: TNFα (UniProt P01375); assay: ELISA, coated TNF-α, Ab 0.000 nM (blank)
TNFα [14] = molecular target: TNFα (UniProt P01375); assay: ELISA, coated TNF-α, Ab 25 nM
LIGHT [15] = molecular target: LIGHT (UniProt O43557); assay: ELISA, coated LIGHT, Ab 0.000 nM (blank)
LT-α [16] = molecular target: T1, LT-α; assay: ELISA, coated LT-α, Ab 0.000 nM (blank)
[17] = molecular target: human TL1A (HuTL1A) (human) (UniProt O95150); assay: DLS, antigen and antibody mixed in equal moles
LIGHT [18] = molecular target: LIGHT (UniProt O43557); assay: ELISA, coated LIGHT, Ab 1.563 nM
LIGHT [19] = molecular target: LIGHT (UniProt O43557); assay: ELISA, coated LIGHT, Ab 6.25 nM
[20] = molecular target: human TL1A (HuTL1A) (human) (UniProt O95150)
LIGHT [21] = molecular target: LIGHT (UniProt O43557); assay: ELISA, coated LIGHT, Ab 100 nM
[22] = molecular target: human TL1A (HuTL1A) (human) (UniProt O95150); assay: ELISA: biotin-HuTL1A on streptavidin plate, antibody diluted at pH 5.8, HRP-anti-human Fc, OD450
FASL [23] = molecular target: FASL (UniProt P48023); assay: ELISA, coated FASL, Ab 6.25 nM
TNFα [24] = molecular target: TNFα (UniProt P01375); assay: ELISA, coated TNF-α, Ab 1.563 nM
[25] = molecular target: human TL1A (HuTL1A) (human) (UniProt O95150); remark: listed apart in the source
LIGHT [26] = molecular target: LIGHT (UniProt O43557); assay: ELISA, coated LIGHT, Ab 0.391 nM
FASL [27] = molecular target: FASL (UniProt P48023); assay: ELISA, coated FASL, Ab 100 nM
LT-α [28] = molecular target: T1, LT-α; assay: ELISA, coated LT-α, Ab 25 nM
FASL [29] = molecular target: FASL (UniProt P48023); assay: ELISA, coated FASL, Ab 1.563 nM
LT-α [30] = molecular target: T1, LT-α; assay: ELISA, coated LT-α, Ab 6.25 nM
[31] = molecular target: human TL1A (HuTL1A) (human) (UniProt O95150); assay: competition ELISA: antibody dilution mixed 1:1 with Biotin-TL1A, added to coated DcR3 (1 µg/mL), Streptavidin-HRP, OD450; blocked partner of TL1A: DcR3; remark: listed apart in the source

Sequence of FASL (P48023 134-281 limits assumed): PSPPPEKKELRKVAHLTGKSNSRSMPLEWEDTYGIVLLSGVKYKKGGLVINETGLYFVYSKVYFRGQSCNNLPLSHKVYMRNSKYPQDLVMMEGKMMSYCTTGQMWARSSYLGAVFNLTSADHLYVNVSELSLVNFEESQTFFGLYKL
Sequence of LIGHT (O43557 74-240 limits assumed): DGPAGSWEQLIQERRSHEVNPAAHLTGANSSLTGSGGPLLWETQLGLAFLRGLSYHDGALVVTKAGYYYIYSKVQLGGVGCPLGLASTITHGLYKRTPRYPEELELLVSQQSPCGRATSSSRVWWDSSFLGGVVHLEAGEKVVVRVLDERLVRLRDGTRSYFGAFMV
Sequence of human TL1A (HuTL1A) (human) (O95150 57-251 limits assumed): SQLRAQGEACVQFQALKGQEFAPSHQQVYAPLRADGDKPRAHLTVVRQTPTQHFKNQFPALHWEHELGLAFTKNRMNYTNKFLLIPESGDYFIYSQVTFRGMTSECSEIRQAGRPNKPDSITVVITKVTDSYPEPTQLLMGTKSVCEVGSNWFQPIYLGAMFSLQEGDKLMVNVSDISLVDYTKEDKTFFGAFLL
Sequence of TNFα (P01375 77-233 limits assumed): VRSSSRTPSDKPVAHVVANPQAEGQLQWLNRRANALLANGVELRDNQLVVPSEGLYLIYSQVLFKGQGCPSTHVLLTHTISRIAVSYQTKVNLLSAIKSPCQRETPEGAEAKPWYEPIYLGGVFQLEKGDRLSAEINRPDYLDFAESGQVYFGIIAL

B1: BM2 antibody (Merck/Prometheus TL1A monoclonal antibody PRA023) (antibody, INN chains, looked up, V domains shown)
VH: QVQLVQSGAEVKKPGASVKVSCKASGFDIQDTYMHWVKQRPGQGLEWMGRIDPASGHTKYDPKFQVRVTITRDTSTSTVYLELSSLRSEDTAVYYCARSGGLPDVWGQGTTVTVSS
VL: EIVLTQSPGTLSLSPGERATLSCRASSSVSYMYWYQQKPGQAPRPLIYATSNLASGIPDRFSGSGSGTDFTLTISRLEPEDFAVYYCQQWEGNPRTFGGGTKLEIK
- OD450 nm (TNFα [1]): 0.0514
- OD450 nm (LT-α [2]): 0.0701
- OD450 nm (FASL [3]): 0.0511
- OD450 nm (LT-α [4]): 0.0713
- OD450 nm (TNFα [5]): 0.0522
- OD450 nm (LT-α [6]): 0.0701
- OD450 nm (TNFα [7]): 0.0757
- OD450 nm (FASL [8]): 0.0643
- OD450 nm (LIGHT [9]): 0.076
- OD450 nm (FASL [10]): 0.0549
- EC50 (read off the curve) [11]: 0.2 nM
- IC50 (read off the curve) [12]: 30 nM
- OD450 nm (TNFα [13]): 0.0612
- OD450 nm (TNFα [14]): 0.0577
- OD450 nm (LIGHT [15]): 0.0588
- OD450 nm (LT-α [16]): 0.0803
- Ave Z-dia (nm) of the antigen-antibody complex [17]: 33.1 nm
- OD450 nm (LIGHT [18]): 0.0741
- OD450 nm (LIGHT [19]): 0.0719
- IC50 (read off the curve); SEAP reporter in HEK293T/DR3-NFκB cells with soluble TL1A, OD655 [20]: 4 nM
- OD450 nm (LIGHT [21]): 0.0864
- EC50 (read off the curve) [22]: 0.2 nM
- OD450 nm (FASL [23]): 0.0533
- OD450 nm (TNFα [24]): 0.0517
- IC50 (read off the curve); IFN-γ of human T cells with IL-12, IL-18 and exogenous human TL1A [25]: 1 nM
- OD450 nm (LIGHT [26]): 0.0643
- OD450 nm (FASL [27]): 0.0828
- OD450 nm (LT-α [28]): 0.0659
- OD450 nm (FASL [29]): 0.0522
- OD450 nm (LT-α [30]): 0.0646
- IC50 (read off the curve) [31]: 7 µg/mL
